Laboratory results published in patent publication US20100092457A1 (Chugai, published 2010).

B1: anti-DSG3 monoclonal antibody DF151 (antibody)
heavy: EVQLQQSGPELVKPGASVKISCKASGYSFTAYYMHWVKQSPEKCLEWIGQINPSTGGTTYNQKFKAKATLTVDKSSSTAYMQLKSLTSEDSAVYYCARWGDSWGQGTTLTVSSAKTTPPSVYPLAPGCGDTTGSSVTLGCLVKGYFPESVTVTWNSGSLSSSVHTFPALLQSGLYTMSSSVTVPSSTWPSQTVTCSVAHPASSTTVDKKLEPSGPISTINPCPPCKECHKCPAPNLEGGPSVFIFPPNIKDVLMISLTPKVTCVVVDVSEDDPDVQISWFVNNVEVHTAQTQTHREDYNSTIRVVSALPIQHQDWMSGKEFKCKVNNKDLPSPIERTISKIKGLVRAPQVYILPPPAEQLSRKDVSLTCLVVGFNPGDISVEWTSNGHTEENYKDTAPVLDSDGSYFIYSKLDIKTSKWEKTDSFSCNVRHEGLKNYYLKKTISRSPGK
light: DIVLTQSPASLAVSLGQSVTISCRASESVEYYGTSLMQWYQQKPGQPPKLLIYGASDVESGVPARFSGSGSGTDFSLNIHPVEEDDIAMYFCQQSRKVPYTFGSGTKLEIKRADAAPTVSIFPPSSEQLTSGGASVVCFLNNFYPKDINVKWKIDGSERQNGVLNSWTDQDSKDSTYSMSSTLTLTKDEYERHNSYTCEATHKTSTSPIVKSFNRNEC
notes: Mouse IgG2b kappa from hybridoma
B2: anti-DSG3 monoclonal antibody DF364 (antibody)
heavy: EVQLQQSGTVLARPGASVKMSCKASGYTFASYWIHWVKQRPGQGLEWIGSIYPGNSDTTYNQKFKGKAKLTVVTSASSAYMELSSLTNEDSAVYYCTEPTYYSYDDYYAMDYWGQGTSVTVSSAKTTPPSVYPLAPGSAAQTNSMVTLGCLVKGYFPEPVTVTWNSGSLSSGVHTFPAVLQSDLYTLSSSVTVPSSTWPSQTVTCNVAHPASSTKVDKKIVPRDCGCKPCICTVPEVSSVFIFPPKPKDVLTITLTPKVTCVVVDISKDDPEVQFSWFVDDVEVHTAQTKPREEQFNSTFRSVSELPIMHQDWLNGKEFKCRVNSAAFPAPIEKTISKTKGRPKAPQVYTIPPPKEQMAKDKVSLTCMITDFFPEDITVEWQWNGQPAENYKNTQPIMDTDGSYFVYSKLNVQKSNWEAGNTFTCSVLHEGLHNHHTEKSLSHSPGK
light: EIVLTQSPALMAASPGEKVTITCSVSSSISSSNLHWYQQKSGTSPKPWIYGTSNLASGVPVRFSGSGSGTSYSLTISTMEAEDAATYYCQQWSSYPLTFGAGTKLELKRADAAPTVSIFPPSSEQLTSGGASVVCFLNNFYPKDINVKWKIDGSERQNGVLNSWTDQDSKDSTYSMSSTLTLTKDEYERHNSYTCEATHKTSTSPIVKSFNRNEC
notes: Mouse IgG1 kappa from hybridoma
B3: anti-DSG3 monoclonal antibody DF366 (antibody)
heavy: EVQLQQSGPELVKPGASVKISCKASGYTFTDYNMDWVKQSHGESLEWIGYIYPNNGGSGYNQKFKSKATLTVDKSSSTAYMELHSLTSEDSAVYYCARRDSYYGFDMAWFAYWGQGTLVTVSAAKTTPPSVYPLAPGSAAQTNSMVTLGCLVKGYFPEPVTVTWNSGSLSSGVHTFPAVLQSDLYTLSSSVTVPSSTWPSQTVTCNVAHPASSTKVDKKIVPRDCGCKPCICTVPEVSSVFIFPPKPKDVLTITLTPKVTCVVVDISKDDPEVQFSWFVDDVEVHTAQTKPREEQFNSTFRSVSELPIMHQDWLNGKEFKCRVNSAAFPAPIEKTISKTKGRPKAPQVYTIPPPKEQMAKDKVSLTCMITDFFPEDITVEWQWNGQPAENYKNTQPIMDTDGSYFVYSKLNVQKSNWEAGNTFTCSVLHEGLHNHHTEKSLSHSPGK
light: DIQMTQSPASLSASVGETVTITCRPSENIYNNLAWYQQKQGKSPQLLVYVATNLAEGVPSRFSGSGSGTRFSLKINSLQPEDFGKYYCQHSYGTPWTFGGGTKLEIKRADAAPTVSIFPPSSEQLTSGGASVVCFLNNFYPKDINVKWKIDGSERQNGVLNSWTDQDSKDSTYSMSSTLTLTKDEYERHNSYTCEATHKTSTSPIVKSFNRNEC
notes: as for B2
B4: DF151 mouse-human chimeric antibody (antibody)
heavy: not shown
light: DIVLTQSPASLAVSLGQSVTISCRASESVEYYGTSLMQWYQQKPGQPPKLLIYGASDVESGVPARFSGSGSGTDFSLNIHPVEEDDIAMYFCQQSRKVPYTFGSGTKLEIKRTVAAPSVFIFPPSDEQLKSGTASVVCLLNNFYPREAKVQWKVDNALQSGNSQESVTEQDSKDSTYSLSSTLTLSKADYEKHKVYACEVTHQGLSSPVTKSFNRGEC
notes: made in CHO DG44 cells; also called DF151c
B5: DF364 mouse-human chimeric antibody (antibody)
heavy: not shown
light: EIVLTQSPALMAASPGEKVTITCSVSSSISSSNLHWYQQKSGTSPKPWIYGTSNLASGVPVRFSGSGSGTSYSLTISTMEAEDAATYYCQQWSSYPLTFGAGTKLELKRTVAAPSVFIFPPSDEQLKSGTASVVCLLNNFYPREAKVQWKVDNALQSGNSQESVTEQDSKDSTYSLSSTLTLSKADYEKHKVYACEVTHQGLSSPVTKSFNRGEC
notes: made in CHO DG44 cells; also called DF364c
B6: DF366 mouse-human chimeric antibody (antibody)
heavy: not shown
light: DIQMTQSPASLSASVGETVTITCRPSENIYNNLAWYQQKQGKSPQLLVYVATNLAEGVPSRFSGSGSGTRFSLKINSLQPEDFGKYYCQHSYGTPWTFGGGTKLEIKRTVAAPSVFIFPPSDEQLKSGTASVVCLLNNFYPREAKVQWKVDNALQSGNSQESVTEQDSKDSTYSLSSTLTLSKADYEKHKVYACEVTHQGLSSPVTKSFNRGEC
notes: made in CHO DG44 cells; also called DF366c
B7: low-fucose DF151 mouse-human chimeric antibody (antibody, human IgG1, kappa)
heavy: not shown
light: B4 light
modifications: low-fucose sugar chain (produced in YB2/0 cells)
notes: differs only in glycosylation (low fucose); also called YB-DF151c
B8: low-fucose DF364 mouse-human chimeric antibody (antibody, human IgG1, kappa)
heavy: not shown
light: B5 light
modifications: low-fucose sugar chain (produced in YB2/0 cells)
notes: differs only in glycosylation (low fucose); also called YB-DF364c
B9: low-fucose DF366 mouse-human chimeric antibody (antibody, human IgG1, kappa)
heavy: not shown
light: B6 light
modifications: low-fucose sugar chain (produced in YB2/0 cells)
notes: differs only in glycosylation (low fucose); also called YB-DF366c
B10: mouse IgG2a chimeric DF366 antibody (antibody)
heavy: EVQLQQSGPELVKPGASVKISCKASGYTFTDYNMDWVKQSHGESLEWIGYIYPNNGGSGYNQKFKSKATLTVDKSSSTAYMELHSLTSEDSAVYYCARRDSYYGFDMAWFAYWGQGTLVTVSAAKTTAPSVYPLAPVCGDTTGSSVTLGCLVKGYFPEPVTLTWNSGSLSSGVHTFPAVLQSDLYTLSSSVTVTSSTWPSQSITCNVAHPASSTKVDKKIEPRGPTIKPCPPCKCPAPNLLGGPSVFIFPPKIKDVLMISLSPIVTCVVVDVSEDDPDVQISWFVNNVEVHTAQTQTHREDYNSTLRVVSALPIQHQDWMSGKEFKCKVNNKDLPAPIERTISKPKGSVRAPQVYVLPPPEEEMTKKQVTLTCMVTDFMPEDIYVEWTNNGKTELNYKNTEPVLDSDGSYFMYSKLRVEKKNWVERNSYSCSVVHEGLHNHHTTKSFSRTPGK
light: B3 light
notes: made in CHO DG44 cells; also called DF366m

Biological target: T1, full-length human DSG3 (Desmoglein 3) protein (human, UniProt P32926 50-999)
T1 construct: Full-length protein constantly expressed on transfected cells (DSG3-CHO, DSG3-A549, DSG3-Ba/F3); no signal peptide limits are stated; also called hDSG3; PV antigen
T1 sequence: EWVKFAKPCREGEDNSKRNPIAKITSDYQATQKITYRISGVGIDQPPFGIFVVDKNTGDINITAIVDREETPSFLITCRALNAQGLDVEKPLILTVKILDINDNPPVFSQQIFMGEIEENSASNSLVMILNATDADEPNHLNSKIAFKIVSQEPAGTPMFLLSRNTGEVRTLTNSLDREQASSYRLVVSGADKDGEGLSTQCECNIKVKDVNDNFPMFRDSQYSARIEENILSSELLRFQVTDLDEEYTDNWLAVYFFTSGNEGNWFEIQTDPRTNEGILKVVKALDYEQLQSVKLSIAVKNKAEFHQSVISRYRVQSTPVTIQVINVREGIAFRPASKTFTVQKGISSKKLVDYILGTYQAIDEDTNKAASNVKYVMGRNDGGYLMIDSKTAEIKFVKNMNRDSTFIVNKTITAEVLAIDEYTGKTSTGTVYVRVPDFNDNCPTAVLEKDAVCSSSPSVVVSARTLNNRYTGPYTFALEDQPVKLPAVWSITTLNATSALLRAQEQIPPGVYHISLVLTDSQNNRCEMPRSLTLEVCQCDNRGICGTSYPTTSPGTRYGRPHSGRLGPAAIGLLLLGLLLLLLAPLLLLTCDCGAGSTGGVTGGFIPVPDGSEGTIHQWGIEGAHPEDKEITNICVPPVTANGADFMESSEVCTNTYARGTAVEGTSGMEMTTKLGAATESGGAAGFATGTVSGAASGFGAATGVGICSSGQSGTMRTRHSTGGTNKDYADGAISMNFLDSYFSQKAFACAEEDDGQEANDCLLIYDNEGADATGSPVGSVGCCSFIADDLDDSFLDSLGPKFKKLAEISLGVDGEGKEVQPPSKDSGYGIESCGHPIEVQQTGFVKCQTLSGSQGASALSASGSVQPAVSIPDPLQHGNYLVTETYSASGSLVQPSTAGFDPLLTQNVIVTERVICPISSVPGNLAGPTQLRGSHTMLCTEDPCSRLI
Experiment: hybridoma screening by flow cytometry on CHO cells expressing full-length human DSG3
Procedure: Next, RPMI1640 medium (Invitrogen) was added carefully to dilute PEG 1500, and then PEG 1500 was removed by centrifuging and removing the supernatant. The group of fused cells suspended in RPMI1640 containing 10% FBS was seeded into a 96-well culture plate at 100 μL/well. The following day, RPMI1640 containing 10% FBS, 1×HAT media supplement (SIGMA), and 0.5×BM-Condimed H1 Hybridoma cloning supplement (Roche Diagnostics) (hereinafter referred to as HAT medium) was added at 100 μL/well. On the second or third day, half of the culture solution was replaced with HAT medium, and the culture supernatant from the seventh day was used in the screening in which binding activity to the DSG3 molecule was used as an indicator. The screening was performed by flow cytometric analysis which detects binding to CHO cells that show constant expression of full-length human DSG3. Positive clones obtained by this analysis were monocloned by the limiting dilution method. Specifically, DF120, DF122, DF148, DF151, DF153, DF168, DF331, DF364, and DF366 were established as antibodies that specifically bind to DSG3.
Flow cytometry was used to evaluate the binding of the obtained antibodies to CHO cells that show constant expression of full-length human DSG3. The cells were suspended in FACS Buffer (1% FBS/PBS) at 5×10⁵ cells/mL and dispensed into Multiscreen-HV Filter Plates (Millipore), and the supernatant was removed from this cell suspension solution by centrifugation. After adding to the supernatant-free cells an FACS buffer containing anti-DSG3 monoclonal antibodies which have been diluted to a suitable concentration (3 μg/mL) in the FACS buffer, this was left to stand for 30 minutes on ice to let the cells react with the monoclonal antibodies. After removing the supernatant from this reaction solution by centrifugation, the cells were washed once with FACS buffer. Next, by suspending the cells in a FACS buffer containing FITC-labeled anti-mouse IgG antibody as the secondary antibody, the cells were reacted with the secondary antibody for 30 minutes on ice. […]

| Binder | binding result |
| --- | --- |
| B1 | binds |
| B2 | binds |
| B3 | binds |

Biological target: T1, full-length human DSG3 (Desmoglein 3) …
Experiment: flow cytometry

| Binder | binding result |
| --- | --- |
| B4 | binds |
| B5 | binds |
| B6 | binds |
| B7 | binds |
| B8 | binds |
| B9 | binds |
| B10 | binds |
